Substitutions are numbered along the chain they refer to. Numbers in names are those of the source. Like-named read-outs stand apart in the source and are kept apart here.
B1: Hu3F6-H5/Hu3F6-L4 (antibody, human IgG1, V domains shown)
VH: EVQLVQSGAEVKKPGASVKVSCKTSGFAFTSYWMNWVRQAPGQGLEWIGRIDPSDSEAHYAHKFWGRATLTVDKSSSTVYMELSSLRSEDTAVYYCLRSLYGKGDYWGHGTTVTVSS
VL: DIVMTQTPLSLSVTPGQPASISCRSSQSLVHRNGNTYLEWYLQKPGQSPQLLIYKVSNRFSGVPDRFSGSGSGTDFTLKISRVEAEDVGVYYCYQGSHVPLTFGGGTKVEIK
notes: Human IgG1 FES (L234F, L235E, P331S) and human Ig kappa constant domains; also called Hu3F6 VH5/VL4
B2: Hu3F8-H4/Hu3F8-L5 (antibody, human IgG1, V domains shown)
VH: B1 VH with T24A, A28T, S31R, A58T, A61N, S76T, H109Q
VL: B1 VL with I2V, T7S, S12P, Q17E, L29I, R32S
notes: Human IgG1 FES (L234F, L235E, P331S) and human Ig kappa constant domains; also called Hu3F8 VH4/VL5
B3: Hu3F8-H6/Hu3F8-L3 (antibody, human IgG1, V domains shown)
VH: EVQLVQSGAEVKKPGESLRISCKASGFTFTRYWMNWVRQMPGKGLEWIGRIDPSDSETHYNHKFWGHATLSVDKSSSTVYLQWSSLKASDTAMYYCLRSLYGKGDYWGQGTTVTVSS
VL: B1 VL with I2V, T7S, S12P, P15L, L29I, R32S, L42Q, K44R, Q50R
notes: Human IgG1 FES (L234F, L235E, P331S) and human Ig kappa constant domains; also called Hu3F8 VH6/VL3
B4: Hu3F8-H4/Hu3F8-L4 (antibody, human IgG1, V domains shown)
VH: B1 VH with T24A, A28T, S31R, A58T, A61N, S76T, H109Q
VL: B1 VL with T7S, S12P, Q17E, L29I, R32S
notes: Human IgG1 FES (L234F, L235E, P331S) and human Ig kappa constant domains; also called Hu3F8 VH4/VL4
B5: Hu3F8-H6/Hu3F8-L5 (antibody, human IgG1, V domains shown)
VH: B3 VH
VL: B1 VL with I2V, T7S, S12P, Q17E, L29I, R32S
notes: Human IgG1 FES (L234F, L235E, P331S) and human Ig kappa constant domains; also called Hu3F8 VH6/VL5
B6: Hu3F6-H5/Hu3F6-L8 (antibody, human IgG1, V domains shown)
VH: B1 VH
VL: B1 VL with I2V, T7S, S12P, Q17E
notes: Human IgG1 FES (L234F, L235E, P331S) and human Ig kappa constant domains; also called Hu3F6 VH5/VL8
B7: Hu3F8-H4/Hu3F8-L3 (antibody, human IgG1, V domains shown)
VH: B1 VH with T24A, A28T, S31R, A58T, A61N, S76T, H109Q
VL: B1 VL with I2V, T7S, S12P, P15L, L29I, R32S, L42Q, K44R, Q50R
notes: Human IgG1 FES (L234F, L235E, P331S) and human Ig kappa constant domains; also called Hu3F8 VH4/VL3

Experiments:
[1] = biological target: T1, human adenosine A2A receptor (A2aR) (human, UniProt P29274 1-412); assay: flow cytometry titration, HEK293-hA2aR cells, purified antibody
T1 construct: Assays used HEK293 cells stably overexpressing human A2aR (BPS Bioscience 79381), human A2aR-expressing CHO cells, or endogenous A2aR on human PBMC; also called human A2aR; hA2aR
T1 sequence (P29274 whole entry): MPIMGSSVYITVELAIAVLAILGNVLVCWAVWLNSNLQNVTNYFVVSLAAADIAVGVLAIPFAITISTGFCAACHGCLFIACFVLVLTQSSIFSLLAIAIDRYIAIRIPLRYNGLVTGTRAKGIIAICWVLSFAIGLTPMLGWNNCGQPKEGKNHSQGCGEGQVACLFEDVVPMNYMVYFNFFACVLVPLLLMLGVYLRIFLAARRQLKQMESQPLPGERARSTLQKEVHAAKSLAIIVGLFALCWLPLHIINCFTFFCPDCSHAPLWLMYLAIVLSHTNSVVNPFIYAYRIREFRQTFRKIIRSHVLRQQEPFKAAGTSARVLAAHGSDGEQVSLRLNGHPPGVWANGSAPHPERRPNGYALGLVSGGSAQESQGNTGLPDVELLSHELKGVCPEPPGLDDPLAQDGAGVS

[2] = biological target: T1, human adenosine A2A receptor (A2aR); assay: flow cytometry, HEK293-hA2aR cells, supernatant 1 ug/ml
[3] = biological target: T1, human adenosine A2A receptor (A2aR); assay: cell-based or functional assay
[4] = biological target: T1, human adenosine A2A receptor (A2aR); assay: flow cytometry, HEK293-hA2aR cells, supernatant 1 ug/ml; remark: listed apart in the source
[5] = biological target: T1, human adenosine A2A receptor (A2aR); assay: cell-based or functional assay; remark: listed apart in the source

Binder | EC50 [1] | MFI [2] | IC50 of blocking activity, cAMP-Glo, 300 nM NECA, HEK293-hA2aR cells, supernatant [3] | MFI [4] | IC50 of blocking activity, cAMP-Glo, 300 nM NECA, HEK293-hA2aR cells, supernatant [5]
B1 | 0.52 nM | 1920 MFI | 7.8 nM | – | –
B2 | 0.75 nM | – | – | 1890 MFI | 1.5 nM
B3 | 0.59 nM | – | – | 1880 MFI | 1.2 nM
B4 | 0.79 nM | – | – | 1880 MFI | 1 nM
B5 | 0.65 nM | – | – | 1900 MFI | 1.5 nM
B6 | 0.59 nM | 1890 MFI | 1.1 nM | – | –
B7 | 0.6 nM | – | – | 1910 MFI | 0.7 nM

— US20250206828A1, “ANTI-ADENOSINE RECEPTOR (A2aR) ANTIBODIES AND THE USE THEREOF” (Adept Therapeutics Inc., priority 2022, published 2025)
